B1: bLF: bovine lactoferrin protein (SERVA Electrophoresis GmbH) (protein, UniProt P24627 20-708, looked up)
Lactotransferrin: APRKNVRWCTISQPEWFKCRRWQWRMKKLGAPSITCVRRAFALECIRAIAEKKADAVTLDGGMVFEAGRDPYKLRPVAAEIYGTKESPQTHYYAVAVVKKGSNFQLDQLQGRKSCHTGLGRSAGWIIPMGILRPYLSWTESLEPLQGAVAKFFSASCVPCIDRQAYPNLCQLCKGEGENQCACSSREPYFGYSGAFKCLQDGAGDVAFVKETTVFENLPEKADRDQYELLCLNNSRAPVDAFKECHLAQVPSHAVVARSVDGKEDLIWKLLSKAQEKFGKNKSRSFQLFGSPPGQRDLLFKDSALGFLRIPSKVDSALYLGSRYLTTLKNLRETAEEVKARYTRVVWCAVGPEEQKKCQQWSQQSGQNVTCATASTTDDCIVLVLKGEADALNLDGGYIYTAGKCGLVPVLAENRKSSKHSSLDCVLRPTEGYLAVAVVKKANEGLTWNSLKDKKSCHTAVDRTAGWNIPMGLIVNQTGSCAFDEFFSQSCAPGADPKSRLCALCAGDDQGLDKCVPNSKEKYYGYTGAFRCLAEDVGDVAFVKNDTVWENTNGESTADWAKNLNREDFRLLCLDGTRKPVTEAQSCHLAVAPNHAVVSRSDRAAHVKQVLLHQQALFGKNGKNCPDKFCLFKSETKNLLFNDNTECLAKLGGRPTYEEYLGTEYVTAIANLKKCSTSPLLEACAFLTR
B2: lactoferrin: lactoferrin contained in breast milk (protein, UniProt P02788 20-710, looked up)
Lactotransferrin: GRRRSVQWCAVSQPEATKCFQWQRNMRKVRGPPVSCIKRDSPIQCIQAIAENRADAVTLDGGFIYEAGLAPYKLRPVAAEVYGTERQPRTHYYAVAVVKKGGSFQLNELQGLKSCHTGLRRTAGWNVPIGTLRPFLNWTGPPEPIEAAVARFFSASCVPGADKGQFPNLCRLCAGTGENKCAFSSQEPYFSYSGAFKCLRDGAGDVAFIRESTVFEDLSDEAERDEYELLCPDNTRKPVDKFKDCHLARVPSHAVVARSVNGKEDAIWNLLRQAQEKFGKDKSPKFQLFGSPSGQKDLLFKDSAIGFSRVPPRIDSGLYLGSGYFTAIQNLRKSEEEVAARRARVVWCAVGEQELRKCNQWSGLSEGSVTCSSASTTEDCIALVLKGEADAMSLDGGYVYTAGKCGLVPVLAENYKSQQSSDPDPNCVDRPVEGYLAVAVVRRSDTSLTWNSVKGKKSCHTAVDRTAGWNIPMGLLFNQTGSCKFDEYFSQSCAPGSDPRSNLCALCIGDEQGENKCVPNSNERYYGYTGAFRCLAENAGDVAFVKDVTVLQNTDGNNNEAWAKDLKLADFALLCLDGKRKPVTEARSCHLAMAPNHAVVSRMDKVERLKQVLLHQQAKFGRNGSDCPDKFCLFQSETKNLLFNDNTECLARLHGKTTYEKYLGPQYVAGITNLKKCSTSPLLEACEFLRK

Experiments:
[1] = tested on: recombinant E2 protein binding to CD81 expressed in Jurkat cells; assay: Inhibition of binding of recombinant E2 protein to Jurkat cells (FACScan); assay type: cell-based, HCV; details: 1 μg recombinant E2 protein preincubated with 10 μL of 1 mg/mL solution, room temperature 1 hour; FIG. 14
Method: An oligopeptide capable of binding to HCV E2 antigen is reacted with the HCV E2 antigen to study whether or not binding of CD81 expressed in Jurkat cells purchased from DAINIPPON PHARMACEUTICAL CO., LTD. to the HCV E2 antigen is inhibited. By the study, whether or not the selected oligopeptide inhibits adhesion of the HCV E2 antigen to CD81-positive cells can be estimated. The inhibitory activity for adhesion of CD81 to the IICV E2 antigen was assayed in accordance with the literature. The concrete description will be given hereinbelow.
The Jurkat cells were prepared in the same manner as in item (1), and suspended in WB so as to have a concentration of 4×10^6 cells/mL, to give a Jurkat cell suspension. […]
Hereinafter, in the same manner as in the item (1) above, the resulting product was reacted with an FITC-labeled anti-mouse IgG1 antibody, and thereafter the reaction mixture was suspended in 0.2 mL of a 10% neutral buffered formalin solution. As to the resulting product, E2 protein bound to Jurkat cells was analyzed by using FACScan.
One microgram of the recombinant E2 protein, and 10 μL of the TAPA148, bLF or bLF443 solution obtained in item (4) above were added to a 6 mm rounded-bottom tube and, and WB was then added thereto, to give 50 μL of a mixture. […] As to the resulting suspension, E2 protein bound to Jurkat cells was analyzed by using FACScan.

[2] = tested on: HCV; details: cited from earlier work

Row | Molecule | inhibitory action of binding of E2 protein to Jurkat cells [1] | amount of virus in blood [2] | binding to HCV ([2]; lactoferrin contained in breast milk)
1 | B1 | inhibitory action of binding of the E2 protein | – | –
2 | B2 | – | reduces an amount of virus in blood | binds to HCV

— US20030171276A1, “Preventives and remedies for chronic hepatitis” (priority 1999, published 2003)
